Data published in patent US20140162285A1, “Methods of Modulating Vesicular Trafficking” (The General Hospital Corporation, priority 2009, published 2014).
Entries after “also recorded” stand apart in the source; their conditions may differ. Ends that are not written are not given here. * marks the point of attachment. FITC = O=C1OC2(c3ccc(O)cc3Oc3cc(O)ccc32)c2ccc(NC(=S)*)cc21; Biotin = O=C1N[C@H]2[C@H](CS[C@H]2CCCCC(=O)*)N1; βAla = NCCC(=O)O

Columns and labels:
Sec7-domain of ARNO = molecular target: T1, Sec7-domain of ARNO (Homo sapiens, UniProt Q99418); test: a2N-derived peptide pull-down with GST-Sec7 domain; type: binding; conditions: GST-Sec7-6His
T1 construct: iii) 61-252aa, Sec7 domain; GST (N, cleaved yes); made in house; host or cells: E. coli BL21(DE3)
T1 sequence (Q99418 61-252): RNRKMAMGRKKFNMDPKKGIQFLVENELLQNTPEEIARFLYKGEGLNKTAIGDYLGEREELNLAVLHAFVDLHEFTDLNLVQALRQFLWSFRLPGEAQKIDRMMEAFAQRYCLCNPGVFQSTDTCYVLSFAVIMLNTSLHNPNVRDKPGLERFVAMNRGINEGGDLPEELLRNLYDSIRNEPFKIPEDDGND
Procedure: (§1) FIGS. 5A-C are a set of three images of Western blots showing the identification of interaction motif of a2N that is involved in specific binding with the Sec7 domain of ARNO. 5A, The catalytic Sec7 domain of ARNO interacts with two a2N-derived peptides, a2N-01 and a2N-03, in pull-down experiments. The peptide pull-down assay was performed with six a2N-derived interaction peptides immobilized on streptavidin-beads and incubated with purified recombinant GST-only or GST-Sec7 domain. Interacting complexes were eluted and analyzed by Western blotting using monoclonal anti-GST antibodies as described below. The loading controls for GST-only (lane 1) or GST-Sec7 (lane 2) are shown. […] The peptide pull-down assay was performed with peptides a2N-01 and a2N-03 immobilized on streptavidin-beads and incubated with purified recombinant GST-PH domain (5B) or GST-PB domain (5C). Interacting complexes were eluted and analyzed by Western blotting using monoclonal anti-GST antibodies. […]
(§2) These a2N-derived peptides were immobilized by an N-terminal biotin-tag, which ensured the same efficiency and equivalent binding to streptavidin-agarose beads. […] After washing beads four times in ice-cold binding buffer, the interacting complexes were eluted by boiling in SDS-PAGE sample buffer for 10 min at 95° C., resolved by SDS-PAGE and analyzed by Western blotting using monoclonal anti-GST antibody.

GST-ARNO(wt) = molecular target: T2, GST-ARNO(wt) (Homo sapiens, UniProt Q99418); test: a2N-derived peptide pull-down assay with GST-ARNO(wt); type: binding; set-up: key to interaction with ARNO (asterisk mark in Table 1): The interacting peptides are indicated in bold with an asterisk (*)
T2 construct: i) 1-400aa, full length ARNO(wt); made in house; host or cells: E. coli BL21(DE3)
T2 sequence (Q99418 1-400): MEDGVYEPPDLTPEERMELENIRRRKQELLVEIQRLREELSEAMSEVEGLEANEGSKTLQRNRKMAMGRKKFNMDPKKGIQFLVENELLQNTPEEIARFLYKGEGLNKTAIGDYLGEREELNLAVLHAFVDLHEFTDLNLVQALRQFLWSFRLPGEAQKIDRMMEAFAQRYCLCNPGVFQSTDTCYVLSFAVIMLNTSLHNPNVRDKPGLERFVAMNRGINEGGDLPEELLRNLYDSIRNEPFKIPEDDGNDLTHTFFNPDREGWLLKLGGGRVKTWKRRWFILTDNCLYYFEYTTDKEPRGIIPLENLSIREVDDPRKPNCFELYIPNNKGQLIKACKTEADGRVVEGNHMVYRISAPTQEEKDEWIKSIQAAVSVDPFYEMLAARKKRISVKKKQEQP
Procedure: FIG. 2A is an image of a Western blot showing the results of an a2N-derived peptide pull-down assay. The indicated a2N-derived peptides were immobilized on streptavidin-beads and incubated with purified recombinant GST-ARNO(wt). Interacting complexes were eluted and analyzed by Western blotting using monoclonal anti-GST antibodies.
FIG. 2B is an image of a Western blot showing the results of a pull-down assay with selected a2N-derived interacting peptides incubated with either GST (negative control) or GST-ARNO(wt). The first two lanes show the patterns obtained when either GST-only (lane 1) or GST-ARNO(wt) (lane 2) were loaded onto the gel.
Peptides were synthesized, purified by HPLC and analyzed by mass spectrometry in the MGH Peptide/Protein Core Facility. All a2N-derived peptides were synthesized with a biotin-tag on the N-terminus for immobilization on streptavidin-agarose beads and with an additional C-terminal cysteine residue for immobilization on beads using sulfhydryl-specific crosslinkers. A peptide corresponding to the PB-domain of ARNO was synthesized containing either a non-phosphorylated or a phosphorylated Ser392 residue. Peptide stock solutions were prepared in DMSO at 5 mM concentration and stored at −20° C. […]

PB-domain of ARNO = molecular target: T3, PB-domain of ARNO (Homo sapiens, UniProt Q99418); test: a2N-derived peptide pull-down with GST-PB domain; type: binding
T3 construct: v) 379-400aa, polybasic (PB) domain; made in house; host or cells: E. coli BL21(DE3)
Procedure: as §1
as §2, with “antibody. […]” for “antibody.”

PH-domain of ARNO = molecular target: T4, PH-domain of ARNO (Homo sapiens, UniProt Q99418); test: a2N-derived peptide pull-down with GST-PH domain; type: binding
T4 construct: iv) 253-378aa, plekstrin-homology (PH) domain; made in house; host or cells: E. coli BL21(DE3)
T4 sequence (Q99418 253-378): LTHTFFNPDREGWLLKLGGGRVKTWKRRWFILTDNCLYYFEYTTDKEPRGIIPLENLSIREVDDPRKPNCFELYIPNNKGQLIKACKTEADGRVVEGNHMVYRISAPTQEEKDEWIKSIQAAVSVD
Procedure: as §1
as §2, with “antibody. […]” for “antibody.”

[1] = molecular target: Sec7-6His recombinant protein (human) (UniProt Q99418); test: calculated from the SPR KD (deltaG = RT ln KD)
[2] = molecular target: Sec7-6His recombinant protein (human) (UniProt Q99418); test: SPR (BIAcore T100), biotinylated a2N-01 captured on neutravidin, Sec7-6His as analyte, 1:1 fit
GST-only = molecular target: T5, GST-only (UniProt P08515 1-218 = GST); test: peptide pull-down: biotinylated peptide on streptavidin beads, GST-only in solution, Western blot with anti-GST antibody
T5 construct: Control bait/prey in pull-down assays; also called GST (negative control)

recombinant ARNO = molecular target: T6, recombinant ARNO (human, UniProt Q99418 1-400, limits assumed); test: cell-based or functional assay
T6 sequence (looked up): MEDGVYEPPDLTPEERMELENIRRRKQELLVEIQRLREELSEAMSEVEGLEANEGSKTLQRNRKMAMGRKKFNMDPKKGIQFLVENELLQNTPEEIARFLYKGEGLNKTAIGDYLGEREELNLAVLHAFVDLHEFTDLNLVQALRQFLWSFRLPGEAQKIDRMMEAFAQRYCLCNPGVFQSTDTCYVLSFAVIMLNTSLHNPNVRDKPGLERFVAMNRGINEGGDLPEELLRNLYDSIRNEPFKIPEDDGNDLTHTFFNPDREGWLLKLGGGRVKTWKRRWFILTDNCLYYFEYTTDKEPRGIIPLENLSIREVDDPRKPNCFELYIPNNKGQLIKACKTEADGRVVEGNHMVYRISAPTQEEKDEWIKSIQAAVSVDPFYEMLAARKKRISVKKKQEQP

T5 sequence (P08515 whole entry): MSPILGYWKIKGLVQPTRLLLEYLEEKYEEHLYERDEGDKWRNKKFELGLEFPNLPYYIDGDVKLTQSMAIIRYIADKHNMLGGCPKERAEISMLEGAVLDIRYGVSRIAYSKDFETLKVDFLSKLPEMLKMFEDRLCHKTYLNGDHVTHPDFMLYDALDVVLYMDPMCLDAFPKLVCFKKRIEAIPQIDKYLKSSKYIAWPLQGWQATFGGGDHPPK

Molecule: Bio-VQFRDLNQNVSSFQR-Cys (VQFRDLNQNVSSFQRC) [a2N-03, AA 35-49 of a2N]
- interaction with Sec7-domain of ARNO (Sec7-domain of ARNO): interacts
- interaction of a2N-derived peptide with GST-ARNO(wt) in pull-down (GST-ARNO(wt); Western blot anti-GST, GST-only as control): specific interaction; also recorded: capable of interaction with ARNO
- interaction with ARNO (asterisk mark in Table 1) (GST-ARNO(wt); biotin-tagged peptides on streptavidin beads): Bio-VQFRDLNQNVSSFQR-Cys *
- interaction with PB-domain of ARNO (PB-domain of ARNO): interacts equally well
- interaction with PH-domain of ARNO (PH-domain of ARNO): interacts equally well

B1: a2N-01 (peptide)
peptide: Biotin-MGSLFRSESMCLAQLFLC
modifications: cysteine pairing not given here
notes: Synthetic peptide from the mouse V-ATPase a2-subunit N-terminal tail; Bio- at N-terminus, extra Cys at C-terminus; also called a2N1-17; biotinylated a2N-01 peptide
- free energy of binding [1]: -8.81 kcal/mol
- Kd [2]: 344 nM
- koff [2]: 0.00086 s⁻¹
- kon [2]: 2500 M⁻¹ s⁻¹
- binding result (GST-only): no binding

B2: FITC-a2N-01-TAT (peptide)
peptide: {FITC-βAla}-MGSLFRSESMCLAQLFLYGRKKRRQRRR
- IC50 of inhibition of ARNO's GEF activity (radiolabel GDP/GTP-exchange assay, 5% PIP2 vesicles) (recombinant ARNO): ~700 nM
